# Paper PMC2765987 (2009)
# B1: FLAG-tagged PP6R3 (full-length, residues 1-873) [human] / PP6 catalytic subunit, endogenous [human (endogenous in HEK293, HeLa, HepG2, Jurkat)] (parent complex)
# chain 1: MFWKFDLHSSSHIDTLLEREDVTLKELMDEEDVLQECKAQNRKLIEFLLKAECLEDLVSFIIEEPPQDMDEKIRYKYPNISCELLTSDVSQMNDRLGEDESLLMKLYSFLLNDSPLNPLLASFFSKVLSILISRKPEQIVDFLKKKHDFVDLIIKHIGTSAIMDLLLRLLTCIEPPQPRQDVLNWLNEEKIIQRLVEIVHPSQEEDRHSNASQSLCEIVRLSRDQMLQIQNSTEPDPLLATLEKQEIIEQLLSNIFHKEKNESAIVSAIQILLTLLETRRPTFEGHIEICPPGMSHSACSVNKSVLEAIRGRLGSFHELLLEPPKKSVMKTTWGVLDPPVGNTRLNVIRLISSLLQTNTSSINGDLMELNSIGVILNMFFKYTWNNFLHTQVEICIALILASPFENTENATITDQDSTGDNLLLKHLFQKCQLIERILEAWEMNEKKQAEGGRRHGYMGHLTRIANCIVHSTDKGPNSALVQQLIKDLPDEVRERWETFCTSSLGETNKRNTVDLVTTCHIHSSSDDEIDFKETGFSQDSSLQQAFSDYQMQQMTSNFIDQFGFNDEKFADQDDIGNVSFDRVSDINFTLNTNESGNIALFEACCKERIQQFDDGGSDEEDIWEEKHIAFTPESQRRSSSGSTDSEESTDSEEEDGAKQDLFEPSSANTEDKMEVDLSEPPNWSANFDVPMETTHGAPLDSVGSDVWSTEEPMPTKETGWASFSEFTSSLSTKDSLRSNSPVEMETSTEPMDPLTPSAAALAVQPEAAGSVAMEASSDGEEDAESTDKVTETVMNGGMKETLSLTVDAKTETAVFKSEEGKLSTSQDAACKDAEECPETAEAKCAAPRPPSSSPEQRTGQPSAPGDTSVNGPV
# chain 2: MAPLDLDKYVEIARLCKYLPENDLKRLCDYVCDLLLEESNVQPVSTPVTVCGDIHGQFYDLCELFRTGGQVPDTNYIFMGDFVDRGYYSLETFTYLLALKAKWPDRITLLRGNHESRQITQVYGFYDECQTKYGNANAWRYCTKVFDMLTVAALIDEQILCVHGGLSPDIKTLDQIRTIERNQEIPHKGAFCDLVWSDPEDVDTWAISPRGAGWLFGAKVTNEFVHINNLKLICRAHQLVHEGYKFMFDEKLVTVWSAPNYCYRCGNIASIMVFKDVNTREPKLFRAVPDSERVIPPRTTTPYFL
# Variants of: B1
# Test: co-immunoprecipitation (anti-FLAG) with quantitative fluorescent immunoblotting; expressed in HEK293 cells; endogenous PP6c; 3 independent experiments; parent: 100; read off a plot
row,percent of parent,Variant
1,~91 PP6c / FLAG (wild type = 100),chain 1 D113R
2,~75 PP6c / FLAG (wild type = 100),"chain 1 E204K, chain 1 E205K"
3,~64 PP6c / FLAG (wild type = 100),"chain 1 E259K, chain 1 E262K"
